B1: CDC25B (parent)
chain: ELKTFRLKTRSWAGERSRRELCSR

Variants of: B1
Assay: protein stability index of a GFP-peptide fusion (GPS, HEK-293T) (PSI 1-6); higher = more stable
Conditions: c terminus: a fixed tail appended
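Note: lentivirally expressed fusions sorted by FACS into six bins by GFP to DsRed ratio, PSI derived from sequencing read proportions per bin multiplied by bin number.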

Going from ELKTFRLKTRSWAGERSRRELMSR [C22M] to ELKTFRLKTRSWAGERSRRELWSR [C22W], the protein stability index falls from 2.96 to 2.89.

Going from ELKTFRLKTRSWAGERSRRELDSR [C22D] to ELKTFRLKTRSWAGERSRRELFSR [C22F], the protein stability index falls from 3.27 to 3.01.

Compared with ELKTFRLKTRSWAGERSRRELKSR [C22K], ELKTFRLKTRSWAGERSRRELASR [C22A] is lower in protein stability index: 3.57 for the first, 3.36 for the second.

Going from ELKTFRLKTRSWAGERSRRELGSR [C22G] to ELKTFRLKTRSWAGERSRRELRSR [C22R], the protein stability index falls from 4.06 to 4.04.

First: ELKTFRLKTRSWAGERSRRELHSR [C22H]
Second: ELKTFRLKTRSWAGERSRRELTSR [C22T]
The protein stability index of the first is lower: 3.42 for the first, 3.48 for the second.

Compared with ELKTFRLKTRSWAGERSRRELISR [C22I], ELKTFRLKTRSWAGERSRRELNSR [C22N] is higher in protein stability index: 3.33 for the first, 4.04 for the second.

Compared with ELKTFRLKTRSWAGERSRRELPSR [C22P], ELKTFRLKTRSWAGERSRRELLSR [C22L] is lower in protein stability index: 3.01 for the first, 2.79 for the second.

Going from ELKTFRLKTRSWAGERSRRELSSR [C22S] to ELKTFRLKTRSWAGERSRRELVSR [C22V], the protein stability index rises from 3.25 to 3.54.

Compared with ELKTFRLKTRSWAGERSRRELQSR [C22Q], ELKTFRLKTRSWAGERSRRELYSR [C22Y] is lower in protein stability index: 3.26 for the first, 2.6 for the second.

Compared with ELKTFRLKTRSWAGERSRRELESR [C22E], ELKTFRLKTRSWAGERSRREVCSR [L21V] is higher in protein stability index: 3.65 for the first, 3.71 for the second.

First: ELKTFRLKTRSWAGERSRREGCSR [L21G]
Second: ELKTFRLKTRSWAGERSRRERCSR [L21R]
The protein stability index of the first is higher: 3.75 for the first, 3.37 for the second.

Compared with ELKTFRLKTRSWAGERSRREECSR [L21E], ELKTFRLKTRSWAGERSRREHCSR [L21H] is lower in protein stability index: 3.6 for the first, 3.31 for the second.

Compared with ELKTFRLKTRSWAGERSRREPCSR [L21P], ELKTFRLKTRSWAGERSRREFCSR [L21F] is lower in protein stability index: 3.99 for the first, 3.12 for the second.

Going from ELKTFRLKTRSWAGERSRREWCSR [L21W] to ELKTFRLKTRSWAGERSRRESCSR [L21S], the protein stability index rises from 2.55 to 3.9.

First: ELKTFRLKTRSWAGERSRREKCSR [L21K]
Second: ELKTFRLKTRSWAGERSRREICSR [L21I]
The protein stability index of the first is higher: 3.76 for the first, 2.81 for the second.

Compared with ELKTFRLKTRSWAGERSRRENCSR [L21N], ELKTFRLKTRSWAGERSRREMCSR [L21M] is lower in protein stability index: 3.35 for the first, 3.33 for the second.

Going from ELKTFRLKTRSWAGERSRREYCSR [L21Y] to ELKTFRLKTRSWAGERSRREACSR [L21A], the protein stability index rises from 3.61 to 3.91.

Compared with ELKTFRLKTRSWAGERSRREQCSR [L21Q], ELKTFRLKTRSWAGERSRREDCSR [L21D] is higher in protein stability index: 3.15 for the first, 3.98 for the second.

Compared with ELKTFRLKTRSWAGERSRRECCSR [L21C], ELKTFRLKTRSWAGERSRRETCSR [L21T] is higher in protein stability index: 3.66 for the first, 3.84 for the second.

Compared with ELKTFRLKTRSWAGERSRRELCHR [S23H], ELKTFRLKTRSWAGERSRRELCWR [S23W] is lower in protein stability index: 3.13 for the first, 2.69 for the second.

ELKTFRLKTRSWAGERSRRELCPR [S23P] and ELKTFRLKTRSWAGERSRRELCMR [S23M] are the same in protein stability index: 3.26 for the first, 3.26 for the second.

Compared with ELKTFRLKTRSWAGERSRRELCNR [S23N], ELKTFRLKTRSWAGERSRRELCYR [S23Y] is higher in protein stability index: 3.8 for the first, 3.83 for the second.

Going from ELKTFRLKTRSWAGERSRRELCTR [S23T] to ELKTFRLKTRSWAGERSRRELCGR [S23G], the protein stability index falls from 3.89 to 3.44.

Compared with ELKTFRLKTRSWAGERSRRELCFR [S23F], ELKTFRLKTRSWAGERSRRELCIR [S23I] is lower in protein stability index: 3.03 for the first, 2.95 for the second.

Compared with ELKTFRLKTRSWAGERSRRELCVR [S23V], ELKTFRLKTRSWAGERSRRELCKR [S23K] is higher in protein stability index: 2.25 for the first, 3.62 for the second.

Going from ELKTFRLKTRSWAGERSRRELCRR [S23R] to ELKTFRLKTRSWAGERSRRELCDR [S23D], the protein stability index rises from 2.87 to 4.21.

First: ELKTFRLKTRSWAGERSRRELCCR [S23C]
Second: ELKTFRLKTRSWAGERSRRELCAR [S23A]
The protein stability index of the first is higher: 3.05 for the first, 3.02 for the second.

Compared with ELKTFRLKTRSWAGERSRRELCQR [S23Q], ELKTFRLKTRSWAGERSRRELCER [S23E] is higher in protein stability index: 3.39 for the first, 3.53 for the second.

Compared with ELKTFRLKTRSWAGERSRRELCLR [S23L], ELKTFRLKTRSWAGERSRNELCSR [R19N] is higher in protein stability index: 3.35 for the first, 3.38 for the second.

Compared with ELKTFRLKTRSWAGERSRAELCSR [R19A], ELKTFRLKTRSWAGERSRMELCSR [R19M] is lower in protein stability index: 4.2 for the first, 3 for the second.

Going from ELKTFRLKTRSWAGERSRVELCSR [R19V] to ELKTFRLKTRSWAGERSRTELCSR [R19T], the protein stability index falls from 2.74 to 2.57.

Going from ELKTFRLKTRSWAGERSRHELCSR [R19H] to ELKTFRLKTRSWAGERSRSELCSR [R19S], the protein stability index rises from 3.13 to 3.28.

Going from ELKTFRLKTRSWAGERSRWELCSR [R19W] to ELKTFRLKTRSWAGERSRLELCSR [R19L], the protein stability index rises from 2.02 to 3.2.

Going from ELKTFRLKTRSWAGERSRIELCSR [R19I] to ELKTFRLKTRSWAGERSRYELCSR [R19Y], the protein stability index rises from 2.57 to 3.51.

First: ELKTFRLKTRSWAGERSRGELCSR [R19G]
Second: ELKTFRLKTRSWAGERSRDELCSR [R19D]
The protein stability index of the first is higher: 3.46 for the first, 2.88 for the second.

Compared with ELKTFRLKTRSWAGERSRFELCSR [R19F], ELKTFRLKTRSWAGERSREELCSR [R19E] is higher in protein stability index: 2.49 for the first, 3.66 for the second.

Compared with ELKTFRLKTRSWAGERSRQELCSR [R19Q], ELKTFRLKTRSWAGERSRCELCSR [R19C] is lower in protein stability index: 3.45 for the first, 2.25 for the second.

First: ELKTFRLKTRSWAGERSRKELCSR [R19K]
Second: ELKTFRLKTRSWAGERSRPELCSR [R19P]
The protein stability index of the first is higher: 3.26 for the first, 2.98 for the second.

Compared with ELKTFRLKTRSWAGERSRRELCSC [R24C], ELKTFRLKTRSWAGERSRRELCSI [R24I] is lower in protein stability index: 2.9 for the first, 2.86 for the second.

First: ELKTFRLKTRSWAGERSRRELCSA [R24A]
Second: ELKTFRLKTRSWAGERSRRELCSW [R24W]
The protein stability index of the first is higher: 2.72 for the first, 2.58 for the second.

Compared with ELKTFRLKTRSWAGERSRRELCSL [R24L], ELKTFRLKTRSWAGERSRRELCST [R24T] is lower in protein stability index: 3 for the first, 2.73 for the second.

Compared with ELKTFRLKTRSWAGERSRRELCSP [R24P], ELKTFRLKTRSWAGERSRRELCSH [R24H] is higher in protein stability index: 2.82 for the first, 3.3 for the second.

Compared with ELKTFRLKTRSWAGERSRRELCSY [R24Y], ELKTFRLKTRSWAGERSRRELCSE [R24E] is higher in protein stability index: 2.33 for the first, 3.39 for the second.

Going from ELKTFRLKTRSWAGERSRRELCSV [R24V] to ELKTFRLKTRSWAGERSRRELCSF [R24F], the protein stability index falls from 2.7 to 1.85.

First: ELKTFRLKTRSWAGERSRRELCSK [R24K]
Second: ELKTFRLKTRSWAGERSRRELCSQ [R24Q]
The protein stability index of the first is higher: 3.38 for the first, 3.23 for the second.

Going from ELKTFRLKTRSWAGERSRRELCSN [R24N] to ELKTFRLKTRSWAGERSRRELCSD [R24D], the protein stability index falls from 3.38 to 2.91.

First: ELKTFRLKTRSWAGERSRRELCSM [R24M]
Second: ELKTFRLKTRSWAGERSRRELCSS [R24S]
The protein stability index of the first is lower: 2.34 for the first, 3.28 for the second.

— the supplement of paper PMC10567573
